# Results reported in patent US20180118818A1.
# Experiments:
# DsRed = DsRed (UniProt Q9U6Y8); experiment: cell-based or functional assay
# [1] = target: green fluorescent protein (GFP) (Aequorea-derived) [GFP: P42212]; experiment: cell-based or functional assay
# Chain of UniProt Q9U6Y8 (Q9U6Y8 whole entry): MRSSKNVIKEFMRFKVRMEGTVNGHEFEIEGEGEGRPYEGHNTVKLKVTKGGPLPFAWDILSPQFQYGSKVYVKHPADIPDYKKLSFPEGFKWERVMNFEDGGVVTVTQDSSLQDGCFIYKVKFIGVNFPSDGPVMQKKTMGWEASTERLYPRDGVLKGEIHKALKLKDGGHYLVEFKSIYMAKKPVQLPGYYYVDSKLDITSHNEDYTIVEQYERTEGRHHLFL
Substance,% TagBFP+ given GFP+ or DsRed+ cells in ONL (+CAG-DsRed) (DsRed) [%],"% Anti-TagBFP+ given GFP+ cells (CAG promoter for GFP, INL) [1] [%]","% Anti-TagBFP+ given GFP+ cells (CAG promoter for GFP, ONL) [1] [%]","% Anti-TagBFP+ given GFP+ cells (Rho promoter for GFP, ONL) [1] [%]","% GFP+ cells given Anti-TagBFP+ cells (CAG promoter for GFP, INL) [1] [%]","% GFP+ cells given Anti-TagBFP+ cells (CAG promoter for GFP, ONL) [1] [%]","% GFP+ cells given Anti-TagBFP+ cells (Rho promoter for GFP, ONL) [1] [%]",% TagBFP+ given GFP+ or DsRed+ cells in ONL (+CAG-GFP) [1] [%],"fold induction of the Flp-dependent luciferase reporter by GFP, 293T cells [1] [fold]"
dGBP1-TagBFP (destabilized GBP1 fused to TagBFP) (VHH),0,97,100,100,99,100,100,91,
"dGBP1x2-Flpo (Flp dependent on GFP, Flp-DOG) (VHH)",,,,,,,,,636
